Source: the supplement of paper PMC10567573

B1: MTMR15 (parent)
chain: YVKAKKSIDKDEEFAGSSPQSSKS
B2: EMD (parent)
chain: YQSKGYNDDYYEESYFTTRTYGEP

Variants of: B1
Assay: protein stability index of a GFP-peptide fusion (GPS, HEK-293T) (PSI 1-6); higher = more stable
Details: c terminus: a fixed tail appended
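Also: lentivirally expressed fusions sorted by FACS into six bins by GFP to DsRed ratio, PSI derived from sequencing read proportions per bin multiplied by bin number.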

Point of comparison: YVKAKKSIDKDEEFAGSSPQSSKF, protein stability index 2.79. Against it:
- YVKAKKSIDKDEEFAGSSPQCSKS — higher, 3.01
- YVKAKKSIDKDEEFAGSSPQQSKS — higher, 3.34
- YVKAKKSIDKDEEFAGSSPQDSKS — higher, 3.31
- YVKAKKSIDKDEEFAGSSPQPSKS — higher, 2.95
- YVKAKKSIDKDEEFAGSSPQNSKS — higher, 3.25
- YVKAKKSIDKDEEFAGSSPQVSKS — lower, 1.22
- YVKAKKSIDKDEEFAGSSPQESKS — higher, 3.3
- YVKAKKSIDKDEEFAGSSPQHSKS — higher, 3.24
- YVKAKKSIDKDEEFAGSSPQTSKS — higher, 3.1
- YVKAKKSIDKDEEFAGSSPQYSKS — higher, 2.98
- YVKAKKSIDKDEEFAGSSPQKSKS — higher, 2.92
- YVKAKKSIDKDEEFAGSSPQLSKS — higher, 2.86
- YVKAKKSIDKDEEFAGSSPQISKS — lower, 2.67
- YVKAKKSIDKDEEFAGSSPQWSKS — lower, 2.41
- YVKAKKSIDKDEEFAGSSPQMSKS — higher, 3.31
- YVKAKKSIDKDEEFAGSSPQFSKS — higher, 3.03
- YVKAKKSIDKDEEFAGSSPQGSKS — lower, 2.61
- YVKAKKSIDKDEEFAGSSPQASKS — higher, 3.23
- YVKAKKSIDKDEEFAGSSPQRSKS — lower, 2.78
- YVKAKKSIDKDEEFAGSSLQSSKS — lower, 2.54
- YVKAKKSIDKDEEFAGSSEQSSKS — higher, 2.94
- YVKAKKSIDKDEEFAGSSDQSSKS — higher, 3.37
- YVKAKKSIDKDEEFAGSSCQSSKS — higher, 3.23
- YVKAKKSIDKDEEFAGSSMQSSKS — higher, 3.42
- YVKAKKSIDKDEEFAGSSWQSSKS — lower, 2.42
- YVKAKKSIDKDEEFAGSSKQSSKS — lower, 2.63
- YVKAKKSIDKDEEFAGSSHQSSKS — higher, 3.25
- YVKAKKSIDKDEEFAGSSNQSSKS — higher, 3.09
- YVKAKKSIDKDEEFAGSSTQSSKS — higher, 3.5
- YVKAKKSIDKDEEFAGSSRQSSKS — lower, 2.45
- YVKAKKSIDKDEEFAGSSGQSSKS — higher, 3.43
- YVKAKKSIDKDEEFAGSSVQSSKS — lower, 2.21
- YVKAKKSIDKDEEFAGSSAQSSKS — higher, 3.19
- YVKAKKSIDKDEEFAGSSFQSSKS — lower, 2.71
- YVKAKKSIDKDEEFAGSSSQSSKS — higher, 3.42
- YVKAKKSIDKDEEFAGSSYQSSKS — higher, 3.02
- YVKAKKSIDKDEEFAGSSQQSSKS — higher, 3.18
- YVKAKKSIDKDEEFAGSSIQSSKS — higher, 2.92
- YVKAKKSIDKDEEFAGSIPQSSKS — higher, 3.66
- YVKAKKSIDKDEEFAGSNPQSSKS — higher, 3.9
- YVKAKKSIDKDEEFAGSWPQSSKS — lower, 1.7
- YVKAKKSIDKDEEFAGSDPQSSKS — higher, 3.18
- YVKAKKSIDKDEEFAGSQPQSSKS — higher, 2.93
- YVKAKKSIDKDEEFAGSFPQSSKS — lower, 2.67
- YVKAKKSIDKDEEFAGSLPQSSKS — higher, 2.85
- YVKAKKSIDKDEEFAGSAPQSSKS — higher, 2.99
- YVKAKKSIDKDEEFAGSPPQSSKS — higher, 3.04
- YVKAKKSIDKDEEFAGSTPQSSKS — lower, 2.64
- YVKAKKSIDKDEEFAGSGPQSSKS — higher, 3.26
- YVKAKKSIDKDEEFAGSEPQSSKS — higher, 3.48
- YVKAKKSIDKDEEFAGSKPQSSKS — higher, 3.04
- YVKAKKSIDKDEEFAGSYPQSSKS — higher, 2.86
- YVKAKKSIDKDEEFAGSHPQSSKS — lower, 2.68
- YVKAKKSIDKDEEFAGSVPQSSKS — higher, 3.38
- YVKAKKSIDKDEEFAGSRPQSSKS — higher, 3.13
- YVKAKKSIDKDEEFAGSCPQSSKS — lower, 2.75
- YVKAKKSIDKDEEFAGSMPQSSKS — lower, 2.59
- YVKAKKSIDKDEEFAGFSPQSSKS — lower, 1.79
- YVKAKKSIDKDEEFAGDSPQSSKS — higher, 3.03
- YVKAKKSIDKDEEFAGESPQSSKS — higher, 3.59
- YVKAKKSIDKDEEFAGLSPQSSKS — higher, 2.93
- YVKAKKSIDKDEEFAGCSPQSSKS — higher, 3.01
- YVKAKKSIDKDEEFAGMSPQSSKS — higher, 2.85
- YVKAKKSIDKDEEFAGQSPQSSKS — higher, 2.93
- YVKAKKSIDKDEEFAGNSPQSSKS — higher, 2.9
- YVKAKKSIDKDEEFAGASPQSSKS — higher, 2.8
- YVKAKKSIDKDEEFAGKSPQSSKS — higher, 3.21
- YVKAKKSIDKDEEFAGHSPQSSKS — higher, 3.07
- YVKAKKSIDKDEEFAGGSPQSSKS — higher, 3.17
- YVKAKKSIDKDEEFAGISPQSSKS — higher, 2.96
- YVKAKKSIDKDEEFAGRSPQSSKS — higher, 2.91
- YVKAKKSIDKDEEFAGWSPQSSKS — higher, 4.48
- YVKAKKSIDKDEEFAGPSPQSSKS — the same, 2.79
- YVKAKKSIDKDEEFAGVSPQSSKS — lower, 2.35
- YVKAKKSIDKDEEFAGTSPQSSKS — higher, 3.29
- YVKAKKSIDKDEEFAGYSPQSSKS — lower, 1.92
- YVKAKKSIDKDEEFAVSSPQSSKS — lower, 2.42
- YVKAKKSIDKDEEFATSSPQSSKS — higher, 2.85
- YVKAKKSIDKDEEFASSSPQSSKS — higher, 3.64
- YVKAKKSIDKDEEFAYSSPQSSKS — lower, 2.19
- YVKAKKSIDKDEEFANSSPQSSKS — higher, 2.98
- YVKAKKSIDKDEEFARSSPQSSKS — higher, 3.06
- YVKAKKSIDKDEEFAWSSPQSSKS — higher, 3.45
- YVKAKKSIDKDEEFAMSSPQSSKS — higher, 3.21
- YVKAKKSIDKDEEFAQSSPQSSKS — higher, 3.21
- YVKAKKSIDKDEEFAPSSPQSSKS — higher, 3.36
- YVKAKKSIDKDEEFAGSSPQSSKA — higher, 3.29
- YVKAKKSIDKDEEFAGSSPQSSKE — higher, 3.55
- YVKAKKSIDKDEEFAGSSPQSSKG — higher, 2.93
- YVKAKKSIDKDEEFAGSSPQSSKP — higher, 3.02
- YVKAKKSIDKDEEFAGSSPQSSKH — higher, 3.33
- YVKAKKSIDKDEEFAGSSPQSSKN — higher, 3.61
- YVKAKKSIDKDEEFAGSSPQSSKC — higher, 3.13
- YVKAKKSIDKDEEFAGSSPQSSKL — lower, 2.71
- YVKAKKSIDKDEEFAGSSPQSSKM — higher, 3.02
- YVKAKKSIDKDEEFAGSSPQSSKT — higher, 2.85
- YVKAKKSIDKDEEFAGSSPQSSKK — lower, 2.58
- YVKAKKSIDKDEEFAGSSPQSSKY — higher, 2.83
- YVKAKKSIDKDEEFAGSSPQSSKQ — higher, 3
- YVKAKKSIDKDEEFAGSSPQSSKI — higher, 3.19
- YVKAKKSIDKDEEFAGSSPQSSKV — lower, 2.33
- YVKAKKSIDKDEEFAGSSPQSSKW — higher, 3.03
- YVKAKKSIDKDEEFAGSSPQSSKR — lower, 2.37
- YVKAKKSIDKDEEFAGSSPQSSKD — higher, 2.94
- YVKAKKSIDKDEEFAGSSPCSSKS — higher, 2.82
- YVKAKKSIDKDEEFAGSSPSSSKS — higher, 2.9
- YVKAKKSIDKDEEFAGSSPFSSKS — lower, 2
- YVKAKKSIDKDEEFAGSSPWSSKS — higher, 3.13
- YVKAKKSIDKDEEFAGSSPKSSKS — higher, 3.24
- YVKAKKSIDKDEEFAGSSPYSSKS — lower, 2.62
- YVKAKKSIDKDEEFAGSSPRSSKS — lower, 2.73
- YVKAKKSIDKDEEFAGSSPTSSKS — higher, 3.4
- YVKAKKSIDKDEEFAGSSPESSKS — higher, 3.29
- YVKAKKSIDKDEEFAGSSPVSSKS — higher, 2.84
- YVKAKKSIDKDEEFAGSSPISSKS — lower, 2.51
- YVKAKKSIDKDEEFAGSSPDSSKS — higher, 3.24
- YVKAKKSIDKDEEFAGSSPNSSKS — higher, 2.96
- YVKAKKSIDKDEEFAGSSPLSSKS — higher, 3
- YVKAKKSIDKDEEFAGSSPGSSKS — higher, 3.27
- YVKAKKSIDKDEEFAGSSPPSSKS — lower, 2.75
- YVKAKKSIDKDEEFAGSSPASSKS — lower, 2.66
- YVKAKKSIDKDEEFAGSSPMSSKS — higher, 2.92
- YVKAKKSIDKDEEFAGSSPHSSKS — higher, 3.2
- YVKAKKSIDKDEEFAGSSPQSSPS — higher, 3.94
- YVKAKKSIDKDEEFAGSSPQSSIS — lower, 2.76
- YVKAKKSIDKDEEFAGSSPQSSSS — higher, 3.08
- YVKAKKSIDKDEEFAGSSPQSSTS — higher, 3.46
- YVKAKKSIDKDEEFAGSSPQSSWS — lower, 2.58
- YVKAKKSIDKDEEFAGSSPQSSNS — higher, 3.41
- YVKAKKSIDKDEEFAGSSPQSSRS — higher, 3.4
- YVKAKKSIDKDEEFAGSSPQSSGS — higher, 3.06
- YVKAKKSIDKDEEFAGSSPQSSCS — higher, 3.5
- YVKAKKSIDKDEEFAGSSPQSSQS — higher, 3.32
- YVKAKKSIDKDEEFAGSSPQSSMS — higher, 3.1
- YVKAKKSIDKDEEFAGSSPQSSYS — lower, 2.76
- YVKAKKSIDKDEEFAGSSPQSSES — higher, 3.55
- YVKAKKSIDKDEEFAGSSPQSSDS — higher, 3.11
- YVKAKKSIDKDEEFAGSSPQSSAS — higher, 3.44
- YVKAKKSIDKDEEFAGSSPQSSHS — higher, 3.33
- YVKAKKSIDKDEEFAGSSPQSSLS — higher, 3
- YVKAKKSIDKDEEFAGSSPQSSVS — higher, 3.85
- YVKAKKSIDKDEEFAGSSPQSSFS — higher, 3.02
- YVKAKKSIDKDEEFAGSSPQSAKS — higher, 3.1
- YVKAKKSIDKDEEFAGSSPQSYKS — lower, 2.78
- YVKAKKSIDKDEEFAGSSPQSHKS — lower, 2.77
- YVKAKKSIDKDEEFAGSSPQSCKS — higher, 3.08
- YVKAKKSIDKDEEFAGSSPQSTKS — higher, 2.87
- YVKAKKSIDKDEEFAGSSPQSDKS — higher, 3.58
- YVKAKKSIDKDEEFAGSSPQSEKS — higher, 3.47
- YVKAKKSIDKDEEFAGSSPQSVKS — higher, 3.36
- YVKAKKSIDKDEEFAGSSPQSPKS — higher, 3.22
- YVKAKKSIDKDEEFAGSSPQSGKS — higher, 2.97
- YVKAKKSIDKDEEFAGSSPQSNKS — higher, 2.83
- YVKAKKSIDKDEEFAGSSPQSKKS — lower, 1.92
- YVKAKKSIDKDEEFAGSSPQSRKS — higher, 3.59
- YVKAKKSIDKDEEFAGSSPQSQKS — lower, 2.6
- YVKAKKSIDKDEEFAGSSPQSMKS — higher, 3.06
- YVKAKKSIDKDEEFAGSSPQSWKS — lower, 2.27
- YVKAKKSIDKDEEFAGSSPQSFKS — higher, 2.89
- YVKAKKSIDKDEEFAGSSPQSLKS — lower, 2.77
- YVKAKKSIDKDEEFAGSSPQSIKS — higher, 3.18

Variants of: B2
Assay: as above
Details: c terminus: a fixed tail appended

Point of comparison: YESKGYNDDYYEESYFTTRTYGEP, protein stability index 3.62. Against it:
- YASKGYNDDYYEESYFTTRTYGEP — lower, 2.15
- YFSKGYNDDYYEESYFTTRTYGEP — lower, 1.93
- YDSKGYNDDYYEESYFTTRTYGEP — lower, 3.5
- YCSKGYNDDYYEESYFTTRTYGEP — lower, 2.12
- YGSKGYNDDYYEESYFTTRTYGEP — lower, 2.53
- YHSKGYNDDYYEESYFTTRTYGEP — lower, 2.03
- FQSKGYNDDYYEESYFTTRTYGEP — lower, 1.97
- LQSKGYNDDYYEESYFTTRTYGEP — lower, 2.92
- MQSKGYNDDYYEESYFTTRTYGEP — lower, 3.22
- EQSKGYNDDYYEESYFTTRTYGEP — higher, 4.2
- QQSKGYNDDYYEESYFTTRTYGEP — higher, 4.15
- VQSKGYNDDYYEESYFTTRTYGEP — higher, 3.67
- AQSKGYNDDYYEESYFTTRTYGEP — higher, 3.8
- PQSKGYNDDYYEESYFTTRTYGEP — higher, 3.63
- RQSKGYNDDYYEESYFTTRTYGEP — lower, 3.48
- IQSKGYNDDYYEESYFTTRTYGEP — lower, 3.2
- HQSKGYNDDYYEESYFTTRTYGEP — higher, 3.76
- NQSKGYNDDYYEESYFTTRTYGEP — higher, 3.9
- SQSKGYNDDYYEESYFTTRTYGEP — higher, 3.67
- CQSKGYNDDYYEESYFTTRTYGEP — lower, 3.02
- GQSKGYNDDYYEESYFTTRTYGEP — higher, 3.8
- DQSKGYNDDYYEESYFTTRTYGEP — higher, 4.46
- KQSKGYNDDYYEESYFTTRTYGEP — higher, 3.63
- WQSKGYNDDYYEESYFTTRTYGEP — lower, 2.61
- TQSKGYNDDYYEESYFTTRTYGEP — higher, 3.7
